Laboratory results: patent US20200231694A1, “PHARMACEUTICAL COMBINATIONS COMPRISING AN ANTI-BST-1 ANTIBODY AND A CYTIDINE ANALOGUE” (BERLIN-CHEMIE AG, priority 2017, published 2020)

T1: cell surface BST1 protein (Homo sapiens, UniProt Q10588)
T1 construct: the antibodies were incubated with the BST1-expressing cells, A549 and H226, from human lung adenocarcinoma and human lung squamous carcinoma; endogenous in cells; host or cells: A549 (human lung adenocarcinoma) and H226 (human lung squamous carcinoma)
T1 sequence (Q10588 33-293): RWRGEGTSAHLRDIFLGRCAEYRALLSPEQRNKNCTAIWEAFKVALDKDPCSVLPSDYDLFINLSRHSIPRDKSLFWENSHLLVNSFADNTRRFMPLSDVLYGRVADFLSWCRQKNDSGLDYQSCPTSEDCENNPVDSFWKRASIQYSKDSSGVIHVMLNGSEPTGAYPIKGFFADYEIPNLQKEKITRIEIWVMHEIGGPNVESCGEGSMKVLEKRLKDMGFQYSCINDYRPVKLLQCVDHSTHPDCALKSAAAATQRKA

T2: ADP-ribosyl cyclase 2 (CD157; BST1) (human, UniProt Q10588 33-293)
T2 construct: Endogenous lipid-anchored BST1 on human cell lines (A549, H226, U937) and on AML patient blasts; also called Bone marrow stromal antigen 1; cell-surface human BST1
T2 sequence: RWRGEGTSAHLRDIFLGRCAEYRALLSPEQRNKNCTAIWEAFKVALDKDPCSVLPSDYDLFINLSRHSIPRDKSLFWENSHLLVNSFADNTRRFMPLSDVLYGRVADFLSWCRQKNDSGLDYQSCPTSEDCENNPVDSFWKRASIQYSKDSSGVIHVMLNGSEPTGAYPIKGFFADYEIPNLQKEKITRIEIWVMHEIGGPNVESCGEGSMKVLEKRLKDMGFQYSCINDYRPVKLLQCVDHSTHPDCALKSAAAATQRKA


What was measured:
A549 cells = assay: MabZAP internalization assay, A549 cells; format: cell-based; conditions: compared to anti-human IgG isotype control
Experimental: (§1) Internalization of BST1_A1 and BST1_A2 by H226 and A549 were investigated using a MabZap assay. […] (Advanced Targeting System, San Diego, Calif., IT-22-100). First, BST1 Fab was bound to the surface of the cells. Then, the MabZAP antibodies were bound to the primary antibodies. Next, the MabZAP complex was internalized by the cells.
(§2) The MabZAP assay was conducted as follows. Each of the cells was seeded at a density of 5×10^3 cells per well. The anti-BST1 monoclonal antibody or an isotype control human IgG was serially diluted then added to the cells and incubated for 15 min at 25° C. The MabZAP was then added and incubated for 72 hr at 37° C. Cell viability in the plates was detected by CellTiter-Glo® Luminescent Cell Viability Assay kit (Promega, G7571) and the plates were read and analysed using Promega Glomax. Cell death was proportional to the concentration of anti-BST1 monoclonal antibodies.

[1] = target: T1, cell surface BST1 protein; assay: Flow cytometry binding of anti-BST1 antibodies to BST1-expressing cells; conditions: A549 and H226 cells
Experimental: (§3) The specificity of antibodies against the BST1 selected in Example 2 was tested by flow cytometry. To test the ability of the antibodies to bind to the cell surface BST1 protein, the antibodies were incubated with the BST1-expressing cells, A549 and H226, from human lung adenocarcinoma and human lung squamous carcinoma, respectively. Cells were washed in FACS buffer (DPBS, 2% FBS), centrifuged and resuspended in 100 μl of the diluted primary BST1 antibody (also diluted in FACS buffer). The antibody-A549 complex was incubated on ice for 60 min and then washed twice with FACS buffer as described above. The cell-antibody pellet was resuspended in 100 μl of the diluted secondary antibody (also diluted in FACS buffer) and incubated on ice for 60 min on ice. The pellet was washed as before and resuspended in 200 μl FACS buffer. The samples were loaded onto the BD FACScanto II flow sytometer and the data analyzed using the BD FACSdiva software.

H226 cells = assay: MabZAP internalization assay, H226 cells; format: cell-based; conditions: compared to anti-human IgG isotype control
Experimental: as §1, §2

[2] = target: T2, ADP-ribosyl cyclase 2 (CD157; BST1); assay: flow cytometry on BST1-expressing H226 and A549 cells, PE-labelled secondary antibody, geometric mean fluorescence; single antibody dilution, concentration not given
Experimental: as §3

Row | Molecule | internalization (MabZAP) (A549 cells) | binding to cell-surface human BST1 [1] | internalization (MabZAP) (H226 cells) | binding result [2]
1 | BST1_A1: anti-BST1 monoclonal antibody, VH SEQ ID NO: 1, VK SEQ ID NO: 3, murine VH 1-80 / VK 4-74 (antibody, listed as Mus musculus) heavy: MKQSTIALALLPLLFTPVAKAQVKLQQSGAELVRPGSSVKISCKASGYAFSNSWINWVKQRPGQGLEWIGQIYPGDYDTNYNGKFKGKATLTADYSSSTAYMQLNSLTSEDSAVYFCARGGSIYYGNLGFFDVWGAGTTVTVSSAKTTPPSVYPLAPGSAAQTNSMVTLGCLVKGYFPEPVTVTWNSGSLSSGVHTFPAVLQSDLYTLSSSVTVPSSTWPSETVTCNVAHPASSTKVDKKIVPRDCHHHHHHH light: MKYLLPTAAAGLLLLAAQPAMAEMVLTQSPAIMSTSLGERVTMTCTASSRVSSSYLHWYQQKPGSSPKLWIYSTSNLASGVPARFSGSGSGTSYSLTISSMEAEDAATYYCHQYHRSPYTFGGGTKLEIKRADAAPTVSIFPPSSEQLTSGGASVVCFLNNFYPKDINVKWKIDGSERQNGVLNSWTDQDSKDSTYSMSSTLTLTKDEYERHNSYTCEATHKTSTSPIVKSFNRNES | efficiently internalized | bound effectively | efficiently internalized | 
2 | BST1_A1 (Fab, V domains shown, also called anti-BST1 monoclonal antibody BST1_A1) VH: QVKLQQSGAELVRPGSSVKISCKASGYAFSNSWINWVKQRPGQGLEWIGQIYPGDYDTNYNGKFKGKATLTADYSSSTAYMQLNSLTSEDSAVYFCARGGSIYYGNLGFFDVWGAGTTVTVSS VL: EMVLTQSPAIMSTSLGERVTMTCTASSRVSSSYLHWYQQKPGSSPKLWIYSTSNLASGVPARFSGSGSGTSYSLTISSMEAEDAATYYCHQYHRSPYTFGGGTKLEIKR |  |  |  | binds
3 | BST1_A3 (Fab, V domains shown) VH: QVQLQQSRAELVMPGASVKMSCKTSGYTFSDYWVHWVRQRPGQGLEWIGAIDGSDTFNDYSQKFKGRATLTVDESSSTVYMQLSSLTSEDSAVYYCARGGLLQYWGQGTTLTVSS VL: DIQLTQSPASLSASVGETVTITCRASENIYSYLAWYQQKQGKSPQLLVYNTKTLGEGVPSRFSGSGSGTQFSLKINSLQPEDFGSYYCQHHYGTPFTFGSGTKLEIKR |  |  |  | binds
4 | BST1_A2 (murine, as selected in Example 2) (Fab, V domains shown, also called anti-BST1 monoclonal antibody BST1_A2) VH: QAYLQQSGPELVKAGASVKMSCKASGYSFIEYTINWVKQSHGKSLEWIGNIDPYYGTTYYNQMFTGKATLTVDQSSNTAYMQLKSLTSEDSAVYFCARGSAWFPYWGQGTLVTVSA VL: DIVMSQSPAIMSASPGEKVTMTCSASSSVTYMYWYQQKPGSSPRLLIYDTSNLASGVPVRFSGSGSGTSYSLTISRMEAEDTATYYCQQWSNYPLTFGAGTKLELKR |  |  |  | binds
5 | BST_A3: anti-BST1 monoclonal antibody, VH SEQ ID NO: 52, VK SEQ ID NO: 53 (antibody, listed as Mus musculus) heavy: MKQSTIALALLPLLFTPVAKAQVQLQQSRAELVMPGASVKMSCKTSGYTFSDYWVHWVRQRPGQGLEWIGAIDGSDTFNDYSQKFKGRATLTVDESSSTVYMQLSSLTSEDSAVYYCARGGLLQYWGQGTTLTVSSAKTTPPSVYPLAPGSAAQTNSMVTLGCLVKGYFPEPVTVTWNSGSLSSGVHTFPAVLQSDLYTLSSSVTVPSSTWPSETVTCNVAHPASSTKVDKKIVPRDCHHHHHHH light: MKYLLPTAAAGLLLLAAQPAMADIQLTQSPASLSASVGETVTITCRASENIYSYLAWYQQKQGKSPQLLVYNTKTLGEGVPSRFSGSGSGTQFSLKINSLQPEDFGSYYCQHHYGTPFTFGSGTKLEIKRADAAPTVSIFPPSSEQLTSGGASVVCFLNNFYPKDINVKWKIDGSERQNGVLNSWTDQDSKDSTYSMSSTLTLTKDEYERHNSYTCEATHKTSTSPIVKSFNRNES |  | bound effectively |  | 
